Test results reported in paper PMC7104376 (Nature structural & molecular biology, 2020).

T1: C34, subunit of S. cerevisiae RNA polymerase III (S. cerevisiae, UniProt P32910 1-317)
T1 sequence: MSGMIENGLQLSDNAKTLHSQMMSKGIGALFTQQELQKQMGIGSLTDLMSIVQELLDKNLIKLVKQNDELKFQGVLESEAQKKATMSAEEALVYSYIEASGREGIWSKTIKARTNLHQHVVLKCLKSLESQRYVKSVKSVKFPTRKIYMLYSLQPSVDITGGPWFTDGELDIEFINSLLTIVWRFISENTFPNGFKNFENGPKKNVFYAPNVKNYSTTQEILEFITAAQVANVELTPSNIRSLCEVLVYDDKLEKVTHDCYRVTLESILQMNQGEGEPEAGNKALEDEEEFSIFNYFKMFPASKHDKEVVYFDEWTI

T2: C160, subunit of S. cerevisiae RNA polymerase III (S. cerevisiae, UniProt P04051 1-1460)
T2 sequence: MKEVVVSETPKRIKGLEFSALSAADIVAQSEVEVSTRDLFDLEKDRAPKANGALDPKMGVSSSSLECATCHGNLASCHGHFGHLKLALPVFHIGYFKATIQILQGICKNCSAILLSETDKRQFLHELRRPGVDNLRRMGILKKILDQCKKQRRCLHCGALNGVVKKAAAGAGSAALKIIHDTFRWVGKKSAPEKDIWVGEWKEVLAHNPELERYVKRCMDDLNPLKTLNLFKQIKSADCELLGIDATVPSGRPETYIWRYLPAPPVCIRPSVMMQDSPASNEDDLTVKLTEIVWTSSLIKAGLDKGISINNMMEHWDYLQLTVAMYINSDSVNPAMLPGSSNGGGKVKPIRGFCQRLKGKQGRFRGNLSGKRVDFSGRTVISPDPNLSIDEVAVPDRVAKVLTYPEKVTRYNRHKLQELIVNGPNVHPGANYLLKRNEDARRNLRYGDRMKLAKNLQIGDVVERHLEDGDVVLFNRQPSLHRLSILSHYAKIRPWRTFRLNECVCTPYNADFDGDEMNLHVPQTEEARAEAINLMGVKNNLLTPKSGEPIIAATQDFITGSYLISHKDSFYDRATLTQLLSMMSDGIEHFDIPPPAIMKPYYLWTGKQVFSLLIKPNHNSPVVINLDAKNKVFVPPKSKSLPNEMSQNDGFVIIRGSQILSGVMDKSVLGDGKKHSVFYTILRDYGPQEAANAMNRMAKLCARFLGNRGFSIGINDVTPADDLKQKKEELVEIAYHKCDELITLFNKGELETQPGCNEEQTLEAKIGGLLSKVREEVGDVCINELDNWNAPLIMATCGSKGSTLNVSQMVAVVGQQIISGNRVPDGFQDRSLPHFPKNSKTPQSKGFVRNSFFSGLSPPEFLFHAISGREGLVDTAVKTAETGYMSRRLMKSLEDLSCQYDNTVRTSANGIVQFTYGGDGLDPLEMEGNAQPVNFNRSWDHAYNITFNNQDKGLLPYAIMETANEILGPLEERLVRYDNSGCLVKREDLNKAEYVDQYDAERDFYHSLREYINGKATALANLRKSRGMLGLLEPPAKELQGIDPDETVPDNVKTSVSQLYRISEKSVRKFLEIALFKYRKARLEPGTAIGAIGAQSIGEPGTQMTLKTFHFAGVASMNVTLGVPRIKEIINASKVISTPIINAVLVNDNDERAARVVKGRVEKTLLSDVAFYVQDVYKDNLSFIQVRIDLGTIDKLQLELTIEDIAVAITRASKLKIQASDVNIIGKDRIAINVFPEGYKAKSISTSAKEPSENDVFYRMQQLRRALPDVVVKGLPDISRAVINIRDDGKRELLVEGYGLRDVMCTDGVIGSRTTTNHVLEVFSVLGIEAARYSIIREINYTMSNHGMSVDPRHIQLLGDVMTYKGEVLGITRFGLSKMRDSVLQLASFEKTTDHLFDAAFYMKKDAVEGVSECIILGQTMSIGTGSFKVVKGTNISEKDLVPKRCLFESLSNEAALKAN

T3: Maf1-id L318S/W319S (S. cerevisiae, UniProt P41910 1-395, Δ64-194 | L318S | W319S)
T3 sequence (looked up): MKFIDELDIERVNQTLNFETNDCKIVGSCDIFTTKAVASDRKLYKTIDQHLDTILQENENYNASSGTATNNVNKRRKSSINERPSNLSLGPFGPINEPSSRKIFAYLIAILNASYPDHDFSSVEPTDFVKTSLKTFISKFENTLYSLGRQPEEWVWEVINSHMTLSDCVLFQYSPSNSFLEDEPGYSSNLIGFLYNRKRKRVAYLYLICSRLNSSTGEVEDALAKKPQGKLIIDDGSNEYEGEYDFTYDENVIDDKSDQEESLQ

T4: Maf1-id T33E/T34E (S. cerevisiae, UniProt P41910 1-395, Δ64-194 | T33E | T34E)
T4 sequence (looked up): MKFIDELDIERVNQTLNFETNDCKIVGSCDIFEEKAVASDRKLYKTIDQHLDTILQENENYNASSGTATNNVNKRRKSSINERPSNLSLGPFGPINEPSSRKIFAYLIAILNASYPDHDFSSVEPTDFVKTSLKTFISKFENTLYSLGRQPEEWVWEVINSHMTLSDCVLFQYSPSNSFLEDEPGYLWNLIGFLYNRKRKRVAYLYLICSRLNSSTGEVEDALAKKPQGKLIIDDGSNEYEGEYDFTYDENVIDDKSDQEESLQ

T5: Maf1-id D248A/D250A (S. cerevisiae, UniProt P41910 1-395, Δ64-194 | D248A | D250A)
T5 sequence (looked up): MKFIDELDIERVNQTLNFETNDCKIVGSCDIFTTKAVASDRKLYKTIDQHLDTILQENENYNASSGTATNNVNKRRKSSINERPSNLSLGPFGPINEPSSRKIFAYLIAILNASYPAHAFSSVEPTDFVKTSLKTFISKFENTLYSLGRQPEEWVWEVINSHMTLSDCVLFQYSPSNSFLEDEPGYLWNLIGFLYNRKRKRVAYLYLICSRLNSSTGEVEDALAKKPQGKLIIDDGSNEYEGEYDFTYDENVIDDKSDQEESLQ

B1: Maf1-id (S. cerevisiae Maf1 lacking the internal non-conserved region, Δ64-194) (natural protein, UniProt P41910 1-395, looked up)
chain: MKFIDELDIERVNQTLNFETNDCKIVGSCDIFTTKAVASDRKLYKTIDQHLDTILQENENYNASSGTATNNVNKRRKSSINERPSNLSLGPFGPINEPSSRKIFAYLIAILNASYPDHDFSSVEPTDFVKTSLKTFISKFENTLYSLGRQPEEWVWEVINSHMTLSDCVLFQYSPSNSFLEDEPGYLWNLIGFLYNRKRKRVAYLYLICSRLNSSTGEVEDALAKKPQGKLIIDDGSNEYEGEYDFTYDENVIDDKSDQEESLQ

How the values were obtained:
[1] = target: T1, C34, subunit of S. cerevisiae RNA …; test: cryo-EM structure
[2] = target: T2, C160, subunit of S. cerevisiae RNA …; test: cryo-EM structure
Maf1-id L318S/W319S = target: T3, Maf1-id L318S/W319S; test: pull-down
Maf1-id T33E/T34E = target: T4, Maf1-id T33E/T34E; test: pull-down
[3] = target: B1; test: pull-down
Maf1-id D248A/D250A = target: T5, Maf1-id D248A/D250A; test: pull-down

binding result [1]	binding result [2]	binding result (Maf1-id L318S/W319S)	binding result (Maf1-id T33E/T34E)	binding result [3]	binding result (Maf1-id D248A/D250A)	Binder
binds	binds	–	–	–	–	B1
–	–	binds	binds	binds	binds	His-tagged C34 1-156 (the two N-terminal WH domains of C34) (domain or fragment, S. cerevisiae, UniProt P32910 1-156, looked up) MSGMIENGLQLSDNAKTLHSQMMSKGIGALFTQQELQKQMGIGSLTDLMSIVQELLDKNLIKLVKQNDELKFQGVLESEAQKKATMSAEEALVYSYIEASGREGIWSKTIKARTNLHQHVVLKCLKSLESQRYVKSVKSVKFPTRKIYMLYSLQPS
